Data reported in patent US20230158141A1 (YAFEI SHANGHAI BIOLOG MEDICINE SCIENCE AND TECHNOLOGY, published 2023).

Legend:
PD-1 [1] = target: T1, PD-1 (UniProt Q15116 25-167, limits assumed); experiment: ELISA, OD mutant/OD WT; B=70-90%
PD-1 [2] = target: T1, PD-1; experiment: ELISA, OD mutant/OD WT; A=90-110%
CTLA-4 = CTLA-4 (UniProt P16410 36-162, limits assumed); experiment: ELISA, OD mutant/OD WT; A=90-110%
Chain of CTLA-4 (P16410 36-162 limits assumed): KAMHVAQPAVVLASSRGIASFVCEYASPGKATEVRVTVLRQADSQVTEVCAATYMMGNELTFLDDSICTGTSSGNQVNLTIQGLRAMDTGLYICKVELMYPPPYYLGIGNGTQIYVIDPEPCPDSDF

T1 sequence (Q15116 25-167 limits assumed): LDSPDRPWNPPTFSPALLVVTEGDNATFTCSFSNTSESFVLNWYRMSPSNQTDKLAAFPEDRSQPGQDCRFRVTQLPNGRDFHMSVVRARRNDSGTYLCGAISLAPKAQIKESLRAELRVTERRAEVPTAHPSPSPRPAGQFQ

Row | Binder | binding activity (OD after mutation/OD wild type) (PD-1 [1]) [%] | binding activity (OD after mutation/OD wild type) (CTLA-4) [%] | other results
1 | anti-PD-1 antibody 2 light chain A25C (antibody, human IgG4 S228P, kappa, V domains shown) VH: QVQLVESGGGVVQPGRSLRLDCKASGITFSNSGMHWVRQAPGKGLEWVAVIWYDGSKRYYADSVKGRFTISRDNSKNTLFLQMNSLRAEDTAVYYCATNDDYWGQGTLVTVSS VL: EIVLTQSPATLSLSPGERATLSCRCSQSVSSYLAWYQQKPGQAPRLLIYDASNRATGIPARFSGSGSGTDFTLTISSLEPEDFAVYYCQQSSNWPRTFGQGTKVEIKR | 70 to 90 |  | 
2 | anti-PD-1 antibody 2 light chain A55C (antibody, human IgG4 S228P, kappa, V domains shown) VH: QVQLVESGGGVVQPGRSLRLDCKASGITFSNSGMHWVRQAPGKGLEWVAVIWYDGSKRYYADSVKGRFTISRDNSKNTLFLQMNSLRAEDTAVYYCATNDDYWGQGTLVTVSS VL: EIVLTQSPATLSLSPGERATLSCRASQSVSSYLAWYQQKPGQAPRLLIYDASNRCTGIPARFSGSGSGTDFTLTISSLEPEDFAVYYCQQSSNWPRTFGQGTKVEIKR | 70 to 90 |  | 
3 | anti-PD-1 antibody 2 light chain A51C (antibody, human IgG4 S228P, kappa, V domains shown) VH: QVQLVESGGGVVQPGRSLRLDCKASGITFSNSGMHWVRQAPGKGLEWVAVIWYDGSKRYYADSVKGRFTISRDNSKNTLFLQMNSLRAEDTAVYYCATNDDYWGQGTLVTVSS VL: EIVLTQSPATLSLSPGERATLSCRASQSVSSYLAWYQQKPGQAPRLLIYDCSNRATGIPARFSGSGSGTDFTLTISSLEPEDFAVYYCQQSSNWPRTFGQGTKVEIKR | 70 to 90 |  | 
4 | anti-PD-1 antibody 2 light chain A60C (antibody, human IgG4 S228P, kappa, V domains shown) VH: QVQLVESGGGVVQPGRSLRLDCKASGITFSNSGMHWVRQAPGKGLEWVAVIWYDGSKRYYADSVKGRFTISRDNSKNTLFLQMNSLRAEDTAVYYCATNDDYWGQGTLVTVSS VL: EIVLTQSPATLSLSPGERATLSCRASQSVSSYLAWYQQKPGQAPRLLIYDASNRATGIPCRFSGSGSGTDFTLTISSLEPEDFAVYYCQQSSNWPRTFGQGTKVEIKR | 70 to 90 |  | 
5 | anti-PD-1 antibody 2 heavy chain S63C (antibody, human IgG4 S228P, kappa, V domains shown) VH: QVQLVESGGGVVQPGRSLRLDCKASGITFSNSGMHWVRQAPGKGLEWVAVIWYDGSKRYYADCVKGRFTISRDNSKNTLFLQMNSLRAEDTAVYYCATNDDYWGQGTLVTVSS VL: EIVLTQSPATLSLSPGERATLSCRASQSVSSYLAWYQQKPGQAPRLLIYDASNRATGIPARFSGSGSGTDFTLTISSLEPEDFAVYYCQQSSNWPRTFGQGTKVEIKR |  |  | binding activity (OD after mutation/OD wild type) (PD-1 [2]): 90 to 110%
6 | anti-PD-1 antibody 2 heavy chain S56C (antibody, human IgG4 S228P, kappa, V domains shown) VH: QVQLVESGGGVVQPGRSLRLDCKASGITFSNSGMHWVRQAPGKGLEWVAVIWYDGCKRYYADSVKGRFTISRDNSKNTLFLQMNSLRAEDTAVYYCATNDDYWGQGTLVTVSS VL: EIVLTQSPATLSLSPGERATLSCRASQSVSSYLAWYQQKPGQAPRLLIYDASNRATGIPARFSGSGSGTDFTLTISSLEPEDFAVYYCQQSSNWPRTFGQGTKVEIKR |  |  | binding activity (OD after mutation/OD wild type) (PD-1 [2]): 90 to 110%
7 | anti-PD-1 antibody 1 light chain A25C (antibody, human IgG4 S228P, kappa, V domains shown) VH: QVQLVQSGVEVKKPGASVKVSCKASGYTFTNYYMYWVRQAPGQGLEWMGGINPSNGGTNFNEKFKNRVTLTTDSSTTTAYMELKSLQFDDTAVYYCARRDYRFDMGFDYWGQGTTVTVSS VL: EIVLTQSPATLSLSPGERATLSCRCSKGVSTSGYSYLHWYQQKPGQAPRLLIYLASYLESGVPARFSGSGSGTDFTLTISSLEPEDFAVYYCQHSRDLPLTFGGGTKVEIKR | 70 to 90 |  | 
8 | anti-PD-1 antibody 1 light chain A55C (antibody, human IgG4 S228P, kappa, V domains shown) VH: QVQLVQSGVEVKKPGASVKVSCKASGYTFTNYYMYWVRQAPGQGLEWMGGINPSNGGTNFNEKFKNRVTLTTDSSTTTAYMELKSLQFDDTAVYYCARRDYRFDMGFDYWGQGTTVTVSS VL: EIVLTQSPATLSLSPGERATLSCRASKGVSTSGYSYLHWYQQKPGQAPRLLIYLCSYLESGVPARFSGSGSGTDFTLTISSLEPEDFAVYYCQHSRDLPLTFGGGTKVEIKR | 70 to 90 |  | 
9 | anti-PD-1 antibody 1 light chain L54C (antibody, human IgG4 S228P, kappa, V domains shown) VH: QVQLVQSGVEVKKPGASVKVSCKASGYTFTNYYMYWVRQAPGQGLEWMGGINPSNGGTNFNEKFKNRVTLTTDSSTTTAYMELKSLQFDDTAVYYCARRDYRFDMGFDYWGQGTTVTVSS VL: EIVLTQSPATLSLSPGERATLSCRASKGVSTSGYSYLHWYQQKPGQAPRLLIYCASYLESGVPARFSGSGSGTDFTLTISSLEPEDFAVYYCQHSRDLPLTFGGGTKVEIKR | 70 to 90 |  | 
10 | anti-PD-1 antibody 1 light chain T101C (antibody, human IgG4 S228P, kappa, V domains shown) VH: QVQLVQSGVEVKKPGASVKVSCKASGYTFTNYYMYWVRQAPGQGLEWMGGINPSNGGTNFNEKFKNRVTLTTDSSTTTAYMELKSLQFDDTAVYYCARRDYRFDMGFDYWGQGTTVTVSS VL: EIVLTQSPATLSLSPGERATLSCRASKGVSTSGYSYLHWYQQKPGQAPRLLIYLASYLESGVPARFSGSGSGTDFTLTISSLEPEDFAVYYCQHSRDLPLCFGGGTKVEIKR | 70 to 90 |  | 
11 | anti-PD-1 antibody 1 light chain T31C (antibody, human IgG4 S228P, kappa, V domains shown) VH: QVQLVQSGVEVKKPGASVKVSCKASGYTFTNYYMYWVRQAPGQGLEWMGGINPSNGGTNFNEKFKNRVTLTTDSSTTTAYMELKSLQFDDTAVYYCARRDYRFDMGFDYWGQGTTVTVSS VL: EIVLTQSPATLSLSPGERATLSCRASKGVSCSGYSYLHWYQQKPGQAPRLLIYLASYLESGVPARFSGSGSGTDFTLTISSLEPEDFAVYYCQHSRDLPLTFGGGTKVEIKR | 70 to 90 |  | 
12 | anti-PD-1 antibody 1 light chain L37C (antibody, human IgG4 S228P, kappa, V domains shown) VH: QVQLVQSGVEVKKPGASVKVSCKASGYTFTNYYMYWVRQAPGQGLEWMGGINPSNGGTNFNEKFKNRVTLTTDSSTTTAYMELKSLQFDDTAVYYCARRDYRFDMGFDYWGQGTTVTVSS VL: EIVLTQSPATLSLSPGERATLSCRASKGVSTSGYSYCHWYQQKPGQAPRLLIYLASYLESGVPARFSGSGSGTDFTLTISSLEPEDFAVYYCQHSRDLPLTFGGGTKVEIKR | 70 to 90 |  | 
13 | anti-CTLA-4 antibody light chain A25C (antibody, human IgG1, kappa, V domains shown) VH: QVQLVESGGGVVQPGRSLRLSCAASGFTFSSYTMHWVRQAPGKGLEWVTFISYDGNNKYYADSVKGRFTISRDNSKNTLYLQMNSLRAEDTAIYYCARTGWLGPFDYWGQGTLVTVSS VL: not shown |  | 90 to 110 | 
14 | anti-CTLA-4 antibody light chain G58C (antibody, human IgG1, kappa, V domains shown) VH: QVQLVESGGGVVQPGRSLRLSCAASGFTFSSYTMHWVRQAPGKGLEWVTFISYDGNNKYYADSVKGRFTISRDNSKNTLYLQMNSLRAEDTAIYYCARTGWLGPFDYWGQGTLVTVSS VL: not shown |  | 90 to 110 | 
15 | anti-CTLA-4 antibody light chain G30C (antibody, human IgG1, kappa, V domains shown) VH: QVQLVESGGGVVQPGRSLRLSCAASGFTFSSYTMHWVRQAPGKGLEWVTFISYDGNNKYYADSVKGRFTISRDNSKNTLYLQMNSLRAEDTAIYYCARTGWLGPFDYWGQGTLVTVSS VL: not shown |  | 90 to 110 | 
16 | anti-CTLA-4 antibody light chain T57C (antibody, human IgG1, kappa, V domains shown) VH: QVQLVESGGGVVQPGRSLRLSCAASGFTFSSYTMHWVRQAPGKGLEWVTFISYDGNNKYYADSVKGRFTISRDNSKNTLYLQMNSLRAEDTAIYYCARTGWLGPFDYWGQGTLVTVSS VL: not shown |  | 90 to 110 | 
17 | anti-CTLA-4 antibody light chain S32C (antibody, human IgG1, kappa, V domains shown) VH: QVQLVESGGGVVQPGRSLRLSCAASGFTFSSYTMHWVRQAPGKGLEWVTFISYDGNNKYYADSVKGRFTISRDNSKNTLYLQMNSLRAEDTAIYYCARTGWLGPFDYWGQGTLVTVSS VL: not shown |  | 90 to 110 | 
18 | anti-CTLA-4 antibody light chain S26C (antibody, human IgG1, kappa, V domains shown, also called CTLA-4-Ser26Cys) VH: QVQLVESGGGVVQPGRSLRLSCAASGFTFSSYTMHWVRQAPGKGLEWVTFISYDGNNKYYADSVKGRFTISRDNSKNTLYLQMNSLRAEDTAIYYCARTGWLGPFDYWGQGTLVTVSS VL: not shown |  | 90 to 110 | 
19 | anti-CTLA-4 antibody light chain S95C (antibody, human IgG1, kappa, V domains shown) VH: QVQLVESGGGVVQPGRSLRLSCAASGFTFSSYTMHWVRQAPGKGLEWVTFISYDGNNKYYADSVKGRFTISRDNSKNTLYLQMNSLRAEDTAIYYCARTGWLGPFDYWGQGTLVTVSS VL: not shown |  | 90 to 110 | 
20 | anti-CTLA-4 antibody light chain G93C (antibody, human IgG1, kappa, V domains shown) VH: QVQLVESGGGVVQPGRSLRLSCAASGFTFSSYTMHWVRQAPGKGLEWVTFISYDGNNKYYADSVKGRFTISRDNSKNTLYLQMNSLRAEDTAIYYCARTGWLGPFDYWGQGTLVTVSS VL: not shown |  | 90 to 110 | 
21 | anti-CTLA-4 antibody light chain S28C (antibody, human IgG1, kappa, V domains shown) VH: QVQLVESGGGVVQPGRSLRLSCAASGFTFSSYTMHWVRQAPGKGLEWVTFISYDGNNKYYADSVKGRFTISRDNSKNTLYLQMNSLRAEDTAIYYCARTGWLGPFDYWGQGTLVTVSS VL: not shown |  | 90 to 110 | 
22 | anti-CTLA-4 antibody light chain S31C (antibody, human IgG1, kappa, V domains shown) VH: QVQLVESGGGVVQPGRSLRLSCAASGFTFSSYTMHWVRQAPGKGLEWVTFISYDGNNKYYADSVKGRFTISRDNSKNTLYLQMNSLRAEDTAIYYCARTGWLGPFDYWGQGTLVTVSS VL: not shown |  | 90 to 110 | 
23 | anti-CTLA-4 antibody light chain S94C (antibody, human IgG1, kappa, V domains shown) VH: QVQLVESGGGVVQPGRSLRLSCAASGFTFSSYTMHWVRQAPGKGLEWVTFISYDGNNKYYADSVKGRFTISRDNSKNTLYLQMNSLRAEDTAIYYCARTGWLGPFDYWGQGTLVTVSS VL: not shown |  | 90 to 110 | 
24 | anti-CTLA-4 antibody light chain G51C (antibody, human IgG1, kappa, V domains shown) VH: QVQLVESGGGVVQPGRSLRLSCAASGFTFSSYTMHWVRQAPGKGLEWVTFISYDGNNKYYADSVKGRFTISRDNSKNTLYLQMNSLRAEDTAIYYCARTGWLGPFDYWGQGTLVTVSS VL: not shown |  | 90 to 110 | 
25 | anti-CTLA-4 antibody light chain S54C (antibody, human IgG1, kappa, V domains shown) VH: QVQLVESGGGVVQPGRSLRLSCAASGFTFSSYTMHWVRQAPGKGLEWVTFISYDGNNKYYADSVKGRFTISRDNSKNTLYLQMNSLRAEDTAIYYCARTGWLGPFDYWGQGTLVTVSS VL: not shown |  | 90 to 110 | 
